Changes are numbered by the printed parent chain.
T1: CHI3L2 expressed in human T cell leukemia cell line Jurkat (human, UniProt Q15782 27-390)
T1 construct: whole, on cells; Endogenous protein, detected by intracellular staining
T1 sequence (looked up): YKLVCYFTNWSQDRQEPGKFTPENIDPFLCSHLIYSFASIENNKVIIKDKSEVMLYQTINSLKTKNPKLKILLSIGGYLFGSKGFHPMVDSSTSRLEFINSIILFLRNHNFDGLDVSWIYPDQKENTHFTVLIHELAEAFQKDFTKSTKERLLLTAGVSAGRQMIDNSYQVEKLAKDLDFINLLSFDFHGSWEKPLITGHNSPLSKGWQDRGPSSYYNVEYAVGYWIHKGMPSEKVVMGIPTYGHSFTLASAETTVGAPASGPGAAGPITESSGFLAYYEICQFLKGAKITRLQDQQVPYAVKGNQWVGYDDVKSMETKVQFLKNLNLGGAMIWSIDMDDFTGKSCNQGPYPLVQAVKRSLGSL

T2: recombinant CHI3L2 (UniProt Q15782 27-390, limits assumed)
T2 sequence (looked up): T1 sequence (looked up)

B1: Clone A (antibody, V domains shown)
VH: DVQLQESGPDLVKPSQSLSLTCTVTGYSITSGYSWHWIRQFPGNKLEWMGYIHYSGRTNYNPSLKSRISFTRDTSKNQFFLRLNSVTPEDTATYYCARNYGYDEFAYWGQGTLVTVSA
VL: QIVLTQSPAIMSASPGEKVTMTCSASSSVSYMHWYQQKSGTSPKRWIYDTSKLASGVPARFSGSGSGTSYSLTISSMEAEDAATYYCQQWSSNPPTFGSGTKLEIK
notes: Hybridoma monoclonal antibody; Conjugated to Alexa-647 for flow cytometry
B2: Clone E (antibody, V domains shown)
VH: B1 VH with R57T, F70I, R82Q, P88T, Y95S
VL: B1 VL
notes: as for B1
B3: Clone B (antibody, V domains shown)
VH: EVKLLESGGGLVQPGGSLKLSCAASGCDFSRYWMSWVRQAPGKGLEWIGEINPDSSTINYTPSLKDKFIISRDNAKNTLYLQMSKVRSEDTALYYCARPEDHFAMDYWGQGTSVTVSS
VL: DIQMTQSPASQSASLGESVTITCLASQTIGTWLAWYQQKPGKSPQLLIYAATSLADGVPSRFSGSGSGTKFSFKISSLQAEDFVSYYCQQLYSTPWTFGGGTKLEIK
notes: Hybridoma monoclonal antibody
B4: anti-human CHI3L1 (Clone F) (antibody, V domains shown)
VH: QVQLQQSGPELVRPGVSVKISCKGSGYTFTDYAMHWVKQSHAKSLEWIGVISTYSGHTNYNQKFKGKATMTVDKSSSTAYMELARLTSEDSAIYYCARGVYYKPEFDYWGQGTTLTVSS
VL: DIQMTQSSSSFSVSLGDRVTITCKASEDIYNRLAWYQQKPGNAPRLLIFGATSLETGVPSRFSGSGSGKDYTLSITSLQTEDVATYYCQQYSSTPPTFGGGTKLEIK
notes: Hybridoma monoclonal antibody; a mouse IgG1 kappa isotype control was used alongside it
B5: anti-human CHI3L1 (Clone H) (antibody, V domains shown)
VH: B4 VH with D31H, H57N
VL: B4 VL with Y30D, F49S, S92W
notes: as for B1

How the values were obtained:
[1] = biological target: T3, CHI3L1 expressed in human cell lines (THP-1, U-87 MG) (human, UniProt P36222 22-383); assay: flow cytometry, fixed/permeabilized CHI3L1-expressing THP-1 cells, 1 µg Alexa-647 antibody
T3 construct: Endogenous CHI3L1 of human cell lines; It was detected inside fixed and permeabilized cells, not on the cell surface; In the ERK assay it is the CHI3L1 made by live U-87 MG cells; also called chitinase 3 like protein 1; YKL-40
T3 sequence (P36222 22-383 limits assumed): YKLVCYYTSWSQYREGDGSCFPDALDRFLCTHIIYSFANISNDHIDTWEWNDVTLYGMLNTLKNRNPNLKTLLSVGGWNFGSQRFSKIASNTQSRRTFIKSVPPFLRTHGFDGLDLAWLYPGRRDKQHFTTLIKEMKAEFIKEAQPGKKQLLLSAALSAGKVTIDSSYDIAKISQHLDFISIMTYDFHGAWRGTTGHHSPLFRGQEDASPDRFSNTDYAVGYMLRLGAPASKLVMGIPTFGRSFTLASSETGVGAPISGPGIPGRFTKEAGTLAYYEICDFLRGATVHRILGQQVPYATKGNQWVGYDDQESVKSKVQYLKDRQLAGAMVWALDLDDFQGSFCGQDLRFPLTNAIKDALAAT
Experimental: In a first experiment, certain anti-CHI31L1 antibodies were assessed using CHI31L1 expressing human […] cell line THP-1. THP-1 cells were grown in RPMI media supplemented with 10% FBS in T75 culture flask. Cells were fixed in Fixation Buffer and permeabilized using Intracellular Perm Wash Buffer. 1 μg anti-CHI31L1 antibodies (conjugated to Alexa-647) were added and allowed to incubate for 15 minutes. Cells were then washed twice with Intracellular Perm Wash Buffer and analyzed on a BD LSRII flow cytometer.

[2] = biological target: T1, CHI3L2 expressed in human T cell …; assay: flow cytometry on fixed/permeabilized CHI3L2-expressing Jurkat cells, Alexa-647 antibody
Experimental: To asses for cross-reactivity with the closely related protein CHI3L2, certain anti-CHI3L1 antibody clones were assessed using CHI3L2 expressing human T cell leukemia cell line Jurkat. Jurkat cells were grown in RPMI media supplemented with 10% FBS in T75 culture flask. Cells were fixed in Fixation Buffer and permeabilized using Intracellular Perm Wash Buffer. 1 μg anti-CHI3L1 antibodies (conjugated to Alexa-647) were added and allowed to incubate for 15 minutes. Cells were then washed twice with Intracellular Perm Wash Buffer and analyzed on a BD LSRII flow cytometer.

recombinant human CHI3L1 [3] = biological target: T4, recombinant human CHI3L1 (human, UniProt P36222 22-383); assay: flow cytometry blocking assay on THP-1 cells (FIG. 5A legend)
T4 construct: also called recombinant CHI3L1; CHI3L1 protein
T4 sequence (P36222 22-383 limits assumed): as above
Experimental: (§1) To assess for specificity for CHI3L1 and cross-reactivity with the closely related protein CHI3L2, certain anti-CHI3L1 antibody clones were assessed using CHI3L1 expressing human […] cell line THP-1. THP-1 cells were grown in RPMI media supplemented with 10% FBS in T75 culture flask. Cells were fixed in Fixation Buffer and permeabilized using Intracellular Perm Wash Buffer. 1 μg anti-CHI3L1 antibodies (conjugated to Alexa-647) were incubated with 5 μg recombinant CHI3L1 or recombinant CHI3L2 for 15 minutes and then added to cells. After 15 minutes incubation, cells were then washed twice with Intracellular Perm Wash Buffer and analyzed on a BD LSRII flow cytometer.

recombinant CHI3L2 = biological target: T2, recombinant CHI3L2; assay: flow cytometry blocking assay on fixed/permeabilized THP-1 cells; antibody pre-incubated with recombinant protein
Experimental: as §1

recombinant human CHI3L1 [4] = biological target: T4, recombinant human CHI3L1; assay: bead-based sandwich immunoassay; biotinylated Clone B is the detection antibody, SAV-PE read-out
Experimental: In this Example, Clone F was paired with Clone B in a bead-based sandwich immunoassay. The assay used Clone F as a capture antibody to capture the antigen (CHI3L1 protein) and then Clone B was used as a detection antibody. The Clone F capture antibody was conjugated on the beads and the Clone B detection antibody was biotinylated. After incubation of the Clone F conjugated beads with CHI3L1 and then detection Clone B, on the beads surface, a sandwich including capture Clone F-CHI3L1-detection Clone B formed. The unbound CHI3L1 protein was then washed off and then streptavidin conjugated to phycoerythrin (SAV-PE) was added, which binds the biotin on the detection Clone B. The final complex including beads-Clone F capture antibody-CHI3L1-Clone B-SAV-PE was acquired onto a flow cytometer and the PE signal on the beads was measured.

recombinant human CHI3L1 [5] = biological target: T4, recombinant human CHI3L1; assay: flow cytometry blocking assay: 1 µg antibody pre-incubated with 5 µg recombinant CHI3L1, then added to THP-1 cells
Experimental: as §1

Binder | binding result [1] | binding result [2] | binding result (recombinant human CHI3L1 [3]) | binding result (recombinant CHI3L2) | binding result (recombinant human CHI3L1 [4]) | binding result (recombinant human CHI3L1 [5])
B1 | binds | no binding (tested: 1 µg) | binds | no binding | – | –
B2 | binds | – | – | – | – | –
B3 | – | – | – | – | binds | –
B4 | – | no binding (tested: 1 µg) | – | no binding | – | –
B5 | binds | no binding (tested: 1 µg) | – | no binding | – | binds

From patent publication US20250313650A1 (BIOLEGEND, published 2025)
